Experiments:
[1] = target: biotinylated UNC-6ΔC (C. elegans) (UniProt P34710); assay: SPR
UNC-6ΔC (C. elegans) = UNC-6ΔC (C. elegans) (UniProt P34710); assay: SEC
[2] = target: UNC-5 N188K ectodomain on yeast (C. elegans); assay: flow cytometry on cells
[3] = target: UNC-5 N18K ectodomain on yeast (C. elegans); assay: flow cytometry on cells
[4] = target: UNC-5 ECD displayed on yeast (C. elegans); assay: flow cytometry on cells
UNC-5 ECD displayed on yeast (C. elegans), sequence (Q26261 whole entry, the tested form may be a part): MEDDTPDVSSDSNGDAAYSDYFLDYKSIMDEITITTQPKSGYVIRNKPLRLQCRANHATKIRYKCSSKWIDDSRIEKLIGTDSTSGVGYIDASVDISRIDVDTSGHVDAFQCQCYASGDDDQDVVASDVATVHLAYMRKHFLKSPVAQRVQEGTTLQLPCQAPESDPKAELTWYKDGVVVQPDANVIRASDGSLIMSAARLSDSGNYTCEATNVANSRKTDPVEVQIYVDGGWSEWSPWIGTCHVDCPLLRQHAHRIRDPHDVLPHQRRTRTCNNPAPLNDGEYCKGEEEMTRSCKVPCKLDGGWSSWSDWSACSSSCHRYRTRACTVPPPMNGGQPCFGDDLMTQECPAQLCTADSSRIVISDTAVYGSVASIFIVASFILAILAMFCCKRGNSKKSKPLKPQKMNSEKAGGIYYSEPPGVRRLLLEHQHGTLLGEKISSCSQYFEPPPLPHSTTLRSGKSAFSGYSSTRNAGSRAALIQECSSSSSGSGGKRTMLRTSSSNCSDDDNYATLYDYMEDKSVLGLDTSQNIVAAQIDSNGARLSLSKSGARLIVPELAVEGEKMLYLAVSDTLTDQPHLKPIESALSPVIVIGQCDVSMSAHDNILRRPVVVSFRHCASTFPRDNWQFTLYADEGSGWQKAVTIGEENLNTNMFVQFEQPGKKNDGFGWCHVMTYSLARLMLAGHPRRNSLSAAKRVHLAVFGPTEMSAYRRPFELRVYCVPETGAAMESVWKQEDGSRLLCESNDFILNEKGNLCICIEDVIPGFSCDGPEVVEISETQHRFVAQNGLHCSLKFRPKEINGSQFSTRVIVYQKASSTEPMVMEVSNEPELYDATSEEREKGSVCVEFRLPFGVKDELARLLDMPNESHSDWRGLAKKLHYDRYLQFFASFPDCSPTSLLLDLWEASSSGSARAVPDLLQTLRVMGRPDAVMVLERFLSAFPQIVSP

biotinylated UNC-6ΔC (C. elegans), sequence (P34710 22-461, stated change not applied): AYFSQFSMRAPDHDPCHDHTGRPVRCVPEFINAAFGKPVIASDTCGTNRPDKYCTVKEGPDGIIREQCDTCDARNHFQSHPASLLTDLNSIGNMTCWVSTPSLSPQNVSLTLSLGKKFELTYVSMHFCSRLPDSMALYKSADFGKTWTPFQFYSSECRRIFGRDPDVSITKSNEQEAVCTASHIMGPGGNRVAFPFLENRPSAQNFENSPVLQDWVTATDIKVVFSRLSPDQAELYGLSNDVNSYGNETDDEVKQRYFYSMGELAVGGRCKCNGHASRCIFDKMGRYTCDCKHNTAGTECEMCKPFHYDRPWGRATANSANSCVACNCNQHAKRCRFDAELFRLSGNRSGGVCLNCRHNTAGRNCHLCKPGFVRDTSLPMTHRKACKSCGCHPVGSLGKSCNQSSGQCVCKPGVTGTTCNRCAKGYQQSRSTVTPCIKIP
biotinylated UNC-6ΔC, sequence (P34710 22-461, stated change not applied): as above
UNC-6ΔC (C. elegans), sequence (P34710 22-461, stated change not applied): as above

Row | KD with heparin [1] | Kd [1] | stoichiometry N (UNC-6ΔC (C. elegans)) | fold loss of affinity against WT UNC-5 [1] | Kd [2] | Kd [3] | KD with heparin [4] | Substance
1 | 1200 nM | 46000 nM | 1 |  |  |  |  | UNC-5 ECD (receptor)
2 | 50000 to 100000 nM |  |  | 2 fold |  |  |  | UNC-5 ECD R17E R70E (receptor)
3 |  |  |  |  | 16.4 nM | 8.2 nM | 35 nM | biotinylated UNC-6ΔC (from UniProt P34710 22-461) (ligand)
